Measured values taken from the DeepSol protein solubility set.

Test: soluble on expression in E. coli; label from the status in PepcDB or PDB records

Question: With “MGSDKIHHHHHHMVVTEYELKPQNFPRFPLDWSEIFGRKAKIVVEIGFGNGEFLAELARRHPEKDFVGFEVSITSFVKAQKKFKRYNLKNVRLVKVDARFGLRELFPDNSVEKVYINFPCPWPKKRHESRRITSYDFLQTLSAVLEMDGTVEFATDEEWYAREVLDTFESSEYFVVDVFEENFKRDVETRYERKWKSQGKKTFLIVARKVKNGTVKRLMEGENTMAHSVFEGNVTWEKLKELEGKVFKDKNKIFVVKKVYRDGDYLLKVISTDEGGFQQVYYLNLSGRDGKWVLKLDEGSDPYRTPALKWSLRRIPEELTAQGSP” as the sequence, how does the “soluble on expression in E. coli” value read?
Answer: not soluble

Question: With “MGSDKIHHHHHHMYAYHPEDIEDIKELIAQTENEQVEFKETTGQLERGMETLCAFLNGEGGTVLFGITDKGKIIGQEVADVTKRSIAEAINRLEPTANVHVFYIPLPDSSKKIIALHVENSRDNRPFCYKSRPYYRVESVTSAMPQAVYNQLLIIRDEAKYRWELFENPKLSLQDMDENEILKTVRLGIECGRLPENTGNNLSIILEKFGLLVNGVLNNAAAVLFANRELIEYPQCLLRLARFKGTDKMVFMDNQRVQGNLFQLLDSAMTFIFKHLSLSGTTEALEREEHLTIPYKAIREGIINSLCHRQFRTPGGSVGIAIYDDRVEIENPGTFPHGWDMERMKSEHCSEPRNPLIANVLYKRKLLENWGRGISLMTEECRKANLPEPEFKLANGFVILVFRYGTNNHTSTMQVPHKHHISTIQVQSLLNIMEYNTYSVKEMMELLELKNRSYFSKEYLKPAVETGVIEPIFPDQPKSPKQKYRLTEKGKALLEKR” as the sequence, how does the “soluble on expression in E. coli” value read?
Answer: not soluble

Question: With “MGSDKIHHHHHHMYDVLIIGAGPAGSSLARLIGDKYKVLLIDKRDLANENPHNLAGKCCGGLLAPDAQKMIAKLGLGIPKDILVNPQLFAVRTIDLTNNLERLYQRFYLNMDREKFDRWLVSILPKKVDKKFNAVFKDFVEIPGGYEVKYIHNGQEISAKTRVIIGADGAFSKLRRFLNQDINGPEKYIAIQEWYECPHHVPYFTAIFDEEISDFYSWIIPKENYLLLGSALKPKEKAREKYELLKTKLTQRGFNFDNKIRTEGAYLYRPKKVSQFYAGRDSIALVGEAAGGISPSSAEGISYALKSSAYLAQSLEEGIDGFLDRYKLKVKGIKLNLLLKNLKSPAMYNPLLRQLAMKSGLQSIDRTE” as the sequence, how does the “soluble on expression in E. coli” value read?
Answer: not soluble

Question: With “MGSDKIHHHHHHMYFNVYGHAGKPIIVFPSSGGSQNEYGDFGMIEACQSFIDRGVVKFYTPDSLDRESWLAEGKSGHDMALAHEAYDRYIVHELVPLIRYESNWNGMMMATGCSMGAFHTVNFSLRHPDLFDISVALSGVYDARFFTGEFYGDPAVYYNSPIDYLWNQEDSWFLDRYRRNRFIVAVGQGAWEEPHIIDTIRLKEAFEAKSIPAWFDFWGSDVAHDWEWWRVQMPYFLGKLEEEGRI” as the sequence, how does the “soluble on expression in E. coli” value read?
Answer: not soluble

Question: With “MGSDKIHHHHHHMYGVMIMKLKTNVFHFTPFSKKQLQVLTWWVNPSTKDSEAIICDGSVRAGKTVIMSLSYVMWAMHTFNGQQLGMAGKTIGSFRRNVLRPLKQMLAGRGYKVIDHRTDNMFEVVKNGKANYFFIFGGKDEASQDLVQGLTAAGFFFDEVALMPQSFVNQATARVSVSGGKYWFNMNPEGPYHWFKLNWIDDLKGKRALRIHFRMEDNPSLSEDVIGRYKRNYSGVFYQRYILGLWVMSEGVIYDNFNRETMVVSEPPGRCTKYYVSVDYGTQNPTVFLLWGFYNGVWYCLKEYYYDGRHSARQKTDDQYANDLDEFVGNINARIIIDPSAASFIAVLRNRHYRIIRADNDVLNGIRETQSAMNNGLIKFTDNLPNLFKELASYIWDDKASSNGEDKVIKEHDHAMDSMRYFVYMVLRHNNKAKVIKNKYF” as the sequence, how does the “soluble on expression in E. coli” value read?
Answer: not soluble

Question: Which “soluble on expression in E. coli” value does the source give for “MGSDKIHHHHHHMYIFRSIHEIINTIFVAKGLLVEMFEKRKVLSFRYSDALALLKEDENRLKILIEKEIIHQNGNFVELDARFLDFFELLLEANEEINTATVEENIEYLHELMDYYLKEKIQSRKESYVRNIKITFQKLARVTIRNIINLQHNIDNAFKHEPTYQIKIAKLQNLDKKRINIQRLIDSTEHLILHEERDFFRQATDEELTRILLELRQELQLSAHSLIRAQQDIINYLNQIKNQVILVEKIRKVKYLQDQFELRARSNLSEIMERERSLLLEGNTQASFKLSPSYLASDEVRPIILKVISNQKYREIVRKNEAGAFSEEDLEAQAMYEEVINLDEVVTAFVQSGAEARWKGEPVSDLFSFLLQYHFHREVDEKERTTFFCQIVSLYESQLEIRNEFGLHNQYEYAKIYPL” here?
Answer: not soluble

Question: Which “soluble on expression in E. coli” value does the source give for “MGSDKIHHHHHHMYLKVFKEDVIDGLQKAANIIPAKTGAAYLRSIWLKAEAGMVHVLSTDSNIEFRGSYKAEVTEEGLAGVQGRAFVDLIRKLPAGEITLHLDPKTGTLGIEQGRRKYTLPTNDTAWFQNFSDYPESGSVFWSGDFLQELIDKLSFCISDEDTMEAIACMSMKPRQDNAIEACGLNGHQFAMQRFLNDDIHALLPAEGILVQKKYLMELKKWLGADEIELNIDNKRLFFRTGDKRETFSLPLSYYQYPDYTSFVSKLSTPDAGALEVNRKDMMAALDRVLIFNTDNNRCTYFDLEAGEVSLSSQGQEVGSASESLEGTYDGSLKRIAFPTRNLIEIMNHYQSDSMRFTLTGTEGPCGLTGENDPDYLVIVMPMKIVEETYYSEEEV” here?
Answer: not soluble

Question: Which “soluble on expression in E. coli” value does the source give for “MGSDKIHHHHHHMYMIKQNFTTKVYPLKQFEGEYSEVAYAGDSQADDVIVFIHGALLTYKIMTMFEPYFRDYKLIFINCPSRGRSSDLDRDTHTLDDYAARIYDVLTQIVKEQQIKELSIVGYSMGGMIATRLLKYNTLPVSHLIYLHSAAKITPDASMLARLFTSESKRAVLKDEIKAVKNLPQYILDKTIYAQKENALDLVQFIAPIKTIITDMIYTINTDYLPDIDEIKQFPKILFMSGKEDQIIPYTDSQATLEKFKALGGETKEVIYPGIGHIDFPSVLETQSDGQTGVVDEIKAWISKK” here?
Answer: not soluble

Question: Which “soluble on expression in E. coli” value does the source give for “MGSDKIHHHHHHPEQQVQQFAQLPVGFKNMGNTCYLNATLQALYRVNDLRDMILNYNPSQGVSNSGAQDEEIHKQIVIEMKRCFENLQNKSFKSVLPVVLLNTLRKCYPQFAERDSQGGFYKQQDAEELFTQLFHSMSIVFGDKFSEDFRIQFKTTIKDTANDNDITVKENESDSKLQCHISGTTNFMRNGLLEGLNEKIEKRSDLTGANSIYSVEKKISRLPKFLTVQYVRFFWKRSTNKKSKILRKVVFPFQLDVADMLTPEYAAEKVKVRDELRKVEKEKNEKEREIKRRKFDPSSSENVMTPREQYETQVALNESEKDQWLEEYKKHFPPNLEKGENPSCVYNLIGVITHQGANSESGHYQAFIRDELDENKWYKFNDDKVSVVEKEKIESLAGGGESDSALILMYKGFGL” here?
Answer: soluble

Question: For “MGSDKIHHHHHHQNQPLRITIDEGIIEPLPYAAPNFVPDSPAAAEYAAEIARVLAADLTGSGLFREIPSTAYISQVTSFDAPVQFADWKAINAQALITGAVSVSGNRLTVRFRLWDVFAGAELGSGLQFAGTTDGWRRMSHKVADAVYSRITGESGYFDSRVAFVSESGPKDQRRKRLAIMDYDGANVQYLTDSSSIVLAPRFSPTGDRVLYTSYQGGFPRIHILDVGQVQQRVLQSQDGTMSFAPRFSPDGQTVLFSLAQGGNTDLYAMNIASGQSTRLTSAPSIETAPSYAPDGSRIVFESDRSGTPQLYVMSAAGGEATRISFGQGRYGTPVWSPRGDLIAFTKQSKGRFHIGVMRADGSEERLLTASFLDEGPTWSPNGRVIMFTRETQGASGRAALYSVDISGRNLRPVRTPDGGSDPSWSPLQK”, which “soluble on expression in E. coli” value is on record?
Answer: not soluble

Question: With “MGSDKIHHHHHHQQLLLIEKLDGTLEDYLFSDDFDEKVLLSCLFQISFSLHYLQKHYKFTHNDLHINNVMYSETTTKYLYYKFNNQYFKIPTYGKIFKIIDFGRSIFTYNNKIYMNDVFTKNSEAWGQFYYPPQVQFLTKPPEDIPNIEPNYNFDLCRLSMTIIEEIDKSKLSENMFNFLNDMCIDKFNENYCEMEDNFSLYINISKNAINSLPEDILNKTIFKQYKVIKKNFPSKLYYK” as the sequence, how does the “soluble on expression in E. coli” value read?
Answer: not soluble

Question: For “MGSDKIHHHHHHQVAYFMSFAGNETFIRELVKQFGSDEVLIVYKTNVKENVLQLQQGHIIKHAIEFKKFQVTSFVKGIKLARVTLFDNYYPELSAINKTKKDYFIQMWHANGAIKAFGWEDPSTYHRSVEDQQRFQRVYDSFDQIVVGSEKMADVFQRSWHVASDKIDRIGYPRTDKYFEESWIEKARKKIQTKLPELTQKRVILYAPTYRKDVSFSLPDDWRKIKVPQDAVLIVRLHPHLANVERQIVDASPDRVIMVDHFISTQELLCVADTLITDYSSIAFDFSLLDNARSVIFFTYDLEEFERTVGIQASFKAAFLNQMVNTVEQLNDAILFGNSDKNVIHKLNQQWNTLNDGHSSARLIKQVKERCTDE”, which “soluble on expression in E. coli” value is on record?
Answer: not soluble

Question: Which “soluble on expression in E. coli” value does the source give for “MGSDKIHHHHHHRVAQCCAIIDRSKIVIGFSDHGLYCIEISRQLLIPVGGEKENKQRCVETVEYDEAEQLLMMIVGPAKDRHVRIVPSAALDGRDLKWIKVNDTKGCHLLAVGTNNPGGRAGFFAVAFKKSVTIFQIDRSEKRHKKWKDLAMPGTPQSIAIFNGRLYVGFSHSFRSWSLVGVDSSPVGSGDASGAVLQHISLVNMEDTSLQFLNQQTSYEAKLIVNVPGSPDEYLLVFNMIGLYVNEMGRRSRLPEVMFPTQAKYFAYHEPYLCVFSENEVDIFNVTLAEWVQTINLRSAKPLSGDGILSTCLCNDSPIFVLLQN” here?
Answer: not soluble

Question: Which “soluble on expression in E. coli” value does the source give for “MGSDKIHHHHHHRYSLLYVPNSFIVPGGRFREFYYWDAYWIIKGLIASDMYNTTRSMIRNLASMVDKYGFVPNGGRVYYLQRSQPPFLAAMVYELYEATNDKAFVAELLPTLLKELNFWNEKRMTDVQMNGKSFKVYQYKTASNVPRPESYRVDTQNSAKLANGADQQQFYQDLASAAESGWDFSTRWFSDYKTLTSIETTKVLPVDLNGLLCWNMDIMEYLYEQIGDTKNSQIFRNKRADFRDTVQNVFYNRTDGTWYDYNLRTQSHNPRFYTSTAVPLFTNCYNTLNTGKSQKVFDYMDKMGVFTYPGGIPTSMSQESDQQWDFPNGWSPNNHMIIEGLRKSANPEMQDKGFLIASKWVMGNFRVFYETGHMWEKYNVIGSYPQPGSGGEYDVQDGFGWSNGAILDLLLTYNDRLFVPENFVNTTVTPSVESTTKSAPKYAKLPWVLVFAFMIRQLFNY” here?
Answer: not soluble

Question: For “MGSDKIHHHHHHTNEDIVKNNVNQPEKVKGNLSLVISSTSNSSRAADNEESGVTDPGIEGESTVTDAVIILNRLDENGNLTKEEFGGYLTKAQLNETTASGETIYNPFFTLANSGWYKVLVVLNPTESIEAIANSQQSTDKSKYEQIAESSYTTTGDITIAAAGQFMMVNKKEIKVDVLSNNYEDPTIKEVEVERVVSKINYVIAKPNNLYPLTVQTTDYAIAETTSGYYIYPDNKAVRLTGLHKAKNLDNDNSDVWIHEGTDGTDRRAFIKTEKTYGQTGEHIFTLLEPFPKFEYYTTSTDGELDWTVKLDKYALVNLSNSVYTARHLTDASWENCKHSASCVFLSKL”, which “soluble on expression in E. coli” value is on record?
Answer: not soluble

Question: Which “soluble on expression in E. coli” value does the source give for “MGSDKIHHHHHHVARLNAKQMEVFVAVMTHGSITAAGQRLNVSQPAVSRMIERFEQEAGFVAFERRRGKLVPTPEAEIFFAEVSQVYRGLDYLNEVAREIGTTRRGYLRVGVFPAFAEGWITERITRYVAGREELLTSLEPMSTDSVIEAVSRQTIDLGIALRASDREGLRSEEISSSEIVCILPKGHRLTGRPVLQPTDLSGEDFISMAAKVKARTSIDAVFDSSGVERRIRAETPWASTVCHMVAHGLGVGLVIRESAFEFAHLGYHIAAFKPRIDYRAYLITSTARPLSTAAKGFRDMLLLEFNQAKKAPRASKRWPT” here?
Answer: not soluble

Question: For “MGSDKIHHHHHHVDDGPCAARLRWTNSVMTEPLMPQTDVPFDELIIREYLLDNPDFFNRYPELLLAMRLPHMERGAISLVERRQEMLRQRVSQLEEEITSLLTMAARNEKIYQFNTELSFQLLNCADLVSLKEVLADSLKLQFNFSHVRLISVLDTDMKAIWDQRLHKGHYFGRLTQQEAKRLFGSEVGSVALTKLSEDNPVIFAIASQDATHFHPDMDNMLLEQLRRLLAHMLAKL”, which “soluble on expression in E. coli” value is on record?
Answer: not soluble
